Consider 1 substance from publication PMC8058080.

This assay addresses Acaryochloris marina photosystem I (PSI) monomer, 11 subunits (PsaA, PsaB, PsaC, PsaD, PsaE, PsaF, PsaJ, PsaK, PsaL, PsaM, Psa27) (Acaryochloris marina) (UniProt B0C474). Nature of the assay: cryo-EM structure; PSI trimer purified from A. marina; 50 mM MES-NaOH pH 6.5, 5 mM CaCl2, 10 mM MgCl2, 0.002% LMNG; 2.58 Å with C3 symmetrization, 2.97 Å without.

Usually stoichiometry N stands for the number of molecules, sites or subunits per partner or assembly.

“Acaryochloris marina photosystem I (PSI) monomer, 11 subunits (PsaA, PsaB, PsaC, PsaD, PsaE, PsaF, PsaJ, PsaK, PsaL, PsaM, Psa27) (from UniProt B0C474 1-753; B0C475 1-736; B0CB42 1-81; B0C8F1 1-139; B0C5D5 1-89; B0C7S7 1-167; B0C7S6 1-51; B0C7S4 1-153; B0C4H4 1-31) (complex)” gave a stoichiometry N of 3.
